Reference: article PMC10786891, “Massively parallel profiling of RNA-targeting CRISPR-Cas13d”

T1: EsCas13d, nuclease-dead (Eubacterium siraeum, UniProt B0MS50, R295A;H300A;R849A;H854A)
T1 sequence: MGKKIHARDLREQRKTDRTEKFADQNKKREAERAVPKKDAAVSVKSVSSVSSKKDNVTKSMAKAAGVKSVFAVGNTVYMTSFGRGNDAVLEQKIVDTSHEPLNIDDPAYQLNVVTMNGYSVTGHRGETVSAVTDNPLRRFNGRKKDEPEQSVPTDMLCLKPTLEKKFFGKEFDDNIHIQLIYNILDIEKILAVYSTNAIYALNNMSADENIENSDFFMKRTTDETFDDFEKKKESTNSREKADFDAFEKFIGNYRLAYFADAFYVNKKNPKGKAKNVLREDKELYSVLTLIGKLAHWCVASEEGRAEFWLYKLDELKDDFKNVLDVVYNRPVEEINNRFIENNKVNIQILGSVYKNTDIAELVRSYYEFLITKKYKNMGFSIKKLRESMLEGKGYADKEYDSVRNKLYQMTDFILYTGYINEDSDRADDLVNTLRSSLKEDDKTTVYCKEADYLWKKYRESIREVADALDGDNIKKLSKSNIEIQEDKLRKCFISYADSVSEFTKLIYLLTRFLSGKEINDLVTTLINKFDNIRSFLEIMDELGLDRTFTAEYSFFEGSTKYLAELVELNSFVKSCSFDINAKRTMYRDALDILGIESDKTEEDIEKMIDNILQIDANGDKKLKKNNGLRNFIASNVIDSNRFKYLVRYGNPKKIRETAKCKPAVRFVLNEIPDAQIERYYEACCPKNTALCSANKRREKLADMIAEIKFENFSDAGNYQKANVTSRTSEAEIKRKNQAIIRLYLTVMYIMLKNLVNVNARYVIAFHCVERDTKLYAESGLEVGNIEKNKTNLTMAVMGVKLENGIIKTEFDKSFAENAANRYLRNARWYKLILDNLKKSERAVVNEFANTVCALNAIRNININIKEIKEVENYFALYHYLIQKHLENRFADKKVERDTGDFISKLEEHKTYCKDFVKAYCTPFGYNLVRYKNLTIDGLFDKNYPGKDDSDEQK


Assays:
EsCas13d, nuclease-dead [1] = target: T1, EsCas13d, nuclease-dead; assay: crRNA (strand 1, pre-loaded); Mg2+; 40 mM Tris-HCl pH 7.5, 150 mM NaCl, 6 mM MgCl2, 1 mM DTT, 0.1% Tween-20, 0.2 mg/ml BSA; 25 C; 10 min per concentration, then washed; conditions: tags: His6-TwinStrep-SUMO cleaved; N-terminal SNAP kept (SNAP-Surface 488); label: 3' end held by stalled T7 RNA polymerase
EsCas13d, nuclease-dead [2] = target: T1, EsCas13d, nuclease-dead; assay: BLI; crRNA (strand 1, pre-loaded); Mg2+; 40 mM Tris-HCl pH 7.5, 150 mM NaCl, 6 mM MgCl2, 1 mM DTT, 0.1% Tween-20, 0.2 mg/ml BSA; temperature not stated; conditions: tags: His6-TwinStrep-SUMO cleaved; label: 3' biotin on strand 2
EsCas13d, nuclease-dead [3] = target: T1, EsCas13d, nuclease-dead; assay: as above; conditions: tags: His6-TwinStrep-SUMO cleaved; label: 3' biotin on strand 2; remark: listed apart in the source

Binder | Kd (EsCas13d, nuclease-dead [1]) | Kd (EsCas13d, nuclease-dead [2]) | koff (EsCas13d, nuclease-dead [3]) | kon (EsCas13d, nuclease-dead [3])
target 1 MT 5'PFS GCU 3'PFS UAG (mixed) RNA 1: CACCCGUGCAAAAAUGCAGGGGUCUAAAACUGAGCGGAUAACCUCUCUAUGG RNA 2: GGGAAUGGAUCCACAUCUACGAAUUCGCUCCAUAGAGAGGUUAUCCGCUCAUAGAGAUCGGAAGAGCACACGU | ~95 nM |  |  | 
target 1 3'-UGG (60-mer) (mixed) RNA 1: CACCCGUGCAAAAAUGCAGGGGUCUAAAACUGAGCGGAUAACCUCUCUAUGG RNA 2: CCACAUCUACGAAUUCGUACCAUAGAGAGGUUAUCCGCUCAUGGAGAUCGGAAGAGCACA |  | 8.6 nM | 0.0006 s⁻¹ | 70000 M⁻¹ s⁻¹
target 1 3'-GCU (60-mer) (mixed) RNA 1: CACCCGUGCAAAAAUGCAGGGGUCUAAAACUGAGCGGAUAACCUCUCUAUGG RNA 2: CCACAUCUACGAAUUCGUACCAUAGAGAGGUUAUCCGCUCAGCUAGAUCGGAAGAGCACA |  | 4.2 nM |  | 
target 1 G5U (60-mer) (mixed) RNA 1: CACCCGUGCAAAAAUGCAGGGGUCUAAAACUGAGCGGAUAACCUCUCUAUGG RNA 2: CCACAUCUACGAAUUCGUACCAUAGAGAGGUUAUCCUCUCACCGAGAUCGGAAGAGCACA |  | 9.3 nM | 0.00042 s⁻¹ | 45000 M⁻¹ s⁻¹
target 1 3'-GUU (60-mer) (mixed) RNA 1: CACCCGUGCAAAAAUGCAGGGGUCUAAAACUGAGCGGAUAACCUCUCUAUGG RNA 2: CCACAUCUACGAAUUCGUACCAUAGAGAGGUUAUCCGCUCAGUUAGAUCGGAAGAGCACA |  | 4.4 nM | 0.0011 s⁻¹ | 250000 M⁻¹ s⁻¹
target 1 G15A (60-mer) (mixed) RNA 1: CACCCGUGCAAAAAUGCAGGGGUCUAAAACUGAGCGGAUAACCUCUCUAUGG RNA 2: CCACAUCUACGAAUUCGUACCAUAGAAAGGUUAUCCGCUCACCGAGAUCGGAAGAGCACA |  | 3.4 nM | 0.0006 s⁻¹ | 180000 M⁻¹ s⁻¹
target 1 3'-UAA (60-mer) (mixed) RNA 1: CACCCGUGCAAAAAUGCAGGGGUCUAAAACUGAGCGGAUAACCUCUCUAUGG RNA 2: CCACAUCUACGAAUUCGUACCAUAGAGAGGUUAUCCGCUCAUAAAGAUCGGAAGAGCACA |  | 6 nM | 0.00061 s⁻¹ | 100000 M⁻¹ s⁻¹
target 1 A20C (60-mer) (mixed) RNA 1: CACCCGUGCAAAAAUGCAGGGGUCUAAAACUGAGCGGAUAACCUCUCUAUGG RNA 2: CCACAUCUACGAAUUCGUACCCUAGAGAGGUUAUCCGCUCACCGAGAUCGGAAGAGCACA |  | 6.3 nM | 0.00063 s⁻¹ | 100000 M⁻¹ s⁻¹
target 1 U10G (60-mer) (mixed) RNA 1: CACCCGUGCAAAAAUGCAGGGGUCUAAAACUGAGCGGAUAACCUCUCUAUGG RNA 2: CCACAUCUACGAAUUCGUACCAUAGAGAGGUGAUCCGCUCACCGAGAUCGGAAGAGCACA |  | 3.8 nM | 0.00051 s⁻¹ | 130000 M⁻¹ s⁻¹
target 1 MT 5'PFS AAG 3'PFS UAC (mixed) RNA 1: CACCCGUGCAAAAAUGCAGGGGUCUAAAACUGAGCGGAUAACCUCUCUAUGG RNA 2: GGGAAUGGAUCCACAUCUACGAAUUCAAGCCAUAGAGAGGUUAUCCGCUCAUACAGAUCGGAAGAGCACACGU | 24 ± 7 nM |  |  | 
target 1 5'-UAA (60-mer) (mixed) RNA 1: CACCCGUGCAAAAAUGCAGGGGUCUAAAACUGAGCGGAUAACCUCUCUAUGG RNA 2: CCACAUCUACGAAUUCUAACCAUAGAGAGGUUAUCCGCUCACCGAGAUCGGAAGAGCACA |  | 6 nM | 0.00061 s⁻¹ | 100000 M⁻¹ s⁻¹
target 1 C22A (60-mer) (mixed) RNA 1: CACCCGUGCAAAAAUGCAGGGGUCUAAAACUGAGCGGAUAACCUCUCUAUGG RNA 2: CCACAUCUACGAAUUCGUAACAUAGAGAGGUUAUCCGCUCACCGAGAUCGGAAGAGCACA |  | 3.6 nM | 0.00066 s⁻¹ | 190000 M⁻¹ s⁻¹
crRNA-2 (MT) target (mixed) RNA 1: CACCCGUGCAAAAUUGCAGGGGUCUAAAACCUUGAAGUUUUCCAAGUGCACU RNA 2: UCCACAGCAAGUGCACUUGGAAAACUUCAAGAUGUGGUCA |  | 3 nM |  | 
